Measured values taken from patent publication US20240049668A1 (VILMORIN AND CIE, published 2024).
Changes are numbered by the printed parent chain. In names and notes the source's numbering stands.

T1: Movement Protein of ToBRFV (Tomato Brown Rugose Fruit Virus …, UniProt A0A0S2SZW1 1-266)
T1 sequence: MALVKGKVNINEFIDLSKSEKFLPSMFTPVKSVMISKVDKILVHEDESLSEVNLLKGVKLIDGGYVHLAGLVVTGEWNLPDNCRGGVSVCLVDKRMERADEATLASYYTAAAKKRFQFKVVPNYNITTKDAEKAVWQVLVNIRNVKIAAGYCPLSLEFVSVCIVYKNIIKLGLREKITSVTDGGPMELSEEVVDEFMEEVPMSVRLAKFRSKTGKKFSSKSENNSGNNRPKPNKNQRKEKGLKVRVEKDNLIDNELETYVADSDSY

B1: TM2-14-25 encoded by Tm2-14-25 (receptor)
chain: MAEILLTSVINKSVEIAGNLLIQEGKRLYWLKEDIDWLQREMRHIRSYVDNAKAKEAGGDSRVKNLLKDIQELAGDVEDLLDDFLPKIQQSNKFNYCLKRSSFADEFAMEIEKIKRRVVDIDRIRKTYNIIDTDNNNDDCVLLDRRRLFLHADETEIIGLDDDFNMLQAKLLNQDLHYGVVSIVGMPGLGKTTLAKKLYRLIRDQFECSGLVYVSQQPRASEILLDIAKQIGLTEQKMKENLEDNLRSLLKIKRYVILLDDIWDVEIWDDLKLVLPECDSKVGSRMIITSRNSNVGRYIGGESSLHALQPLESEKSFELFTKKIFNFDDNNSWANASPDLVNIGRNIVGRCGGIPLAIVVTAGMLRARERTEHAWNRVLESMGHKVQDGCAKVLALSYNDLPIASRPCFLYFGLYPEDHEIRAFDLINMWIAEKFIVVNSGNRREAEDLAEDVLNDLVSRNLIQLAKRTYNGRISSCRIHDLLHSLCVDLAKESNFFHTAHDAFGDPGNVARLRRITFYSDNVMIEFFRSNPKLEKLRVLFCFAKDPSIFSHMAYFDFKLLHTLVVVMSQSFQAYVTIPSKFGNMTCLRYLRLEGNICGKLPNSIVKLTRLETIDIDRRSLIQPPSGVWESKHLRHLCYRDYGQACNSCFSISSLYPNIYSLHPNNLQTLMWIPDKFFEPRLLHRLINLRKLGILGVSNSTVKMLSIFSPVLKALEVLKLSFSSDPSEQIKLSSYPHIAKLHLNVNRTMALNSQSFPPNLIKLTLAYFSVDRYILAVLKTFPKLRKLKMFICKYNEEKMDLSGEANGYSFPQLEVLHIHSPNGLSEVTCTDDVSMPKLKKLLLTGFHRRISLSERLKKLSK
B2: TM-2-2 variant pJL 466 (F655L) (receptor)
chain: B1 chain with R848C
B3: TM-2-2 protein (product of the Tm-2-2 gene) (receptor)
chain: B1 chain with L655F, R848C
B4: TM2-467 encoded by Tm2-467 (receptor)
chain: B1 chain with L655F
B5: TM-2-2 variant pJL 480T (848 R, 857 T) (receptor)
chain: B1 chain with L655F, K857T
B6: TM-2-2 variant pJL 480I (848 R, 857 I) (receptor)
chain: B1 chain with L655F, K857I
B7: TM-2-2 variant pJL 480Q (848 R, 857 Q) (receptor)
chain: B1 chain with L655F, K857Q
B8: TM-2-2 variant pJL 480E (848 R, 857 E) (receptor)
chain: B1 chain with L655F, K857E
B9: TM-2-2 variant pJL 480R (848 R, 857 R) (receptor)
chain: B1 chain with L655F, K857R
B10: TM-2-2 variant L11_1 (767 R) (receptor)
chain: B1 chain with L655F, Y767R, R848C
B11: TM-2-2 variant L11_20 (767 V) (receptor)
chain: B1 chain with L655F, Y767V, R848C
B12: TM-2-2 variant L12_3 (769 V) (receptor)
chain: B1 chain with L655F, S769V, R848C
B13: TM-2-2 variant L12_4 (769 F) (receptor)
chain: B1 chain with L655F, S769F, R848C
B14: TM-2-2 variant L12_12 (769 R) (receptor)
chain: B1 chain with L655F, S769R, R848C
B15: TM-2-2 variant L12_16 (769 E) (receptor)
chain: B1 chain with L655F, S769E, R848C
B16: TM-2-2 variant L12_11 (769 G) (receptor)
chain: B1 chain with L655F, S769G, R848C
B17: TM-2-2 variant L12_A (769 A) (receptor)
chain: B1 chain with L655F, S769A, R848C
B18: TM-2-2 variant pJL 511_2 (767 S, 848 R) (receptor)
chain: B1 chain with L655F, Y767S
B19: TM-2-2 variant pJL 511_12 (767 D, 848 R) (receptor)
chain: B1 chain with L655F, Y767D
B20: TM-2-2 variant pJL 511_1 (767 S, 769 A, 848 R) (receptor)
chain: B1 chain with L655F, Y767S, S769A
B21: TM-2-2 variant pJL 511_5 (767 Y wt, 769 S wt, 848 R) (receptor)
chain: B1 chain with L655F
B22: TM-2-2 variant pJL 511_3 (767 Y, 769 A, 848 R) (receptor)
chain: B1 chain with L655F, S769A
B23: TM-2-2 variant pJL 511_8 (767 D, 769 A, 848 R) (receptor)
chain: B1 chain with L655F, Y767D, S769A

Target: T1, Movement Protein of ToBRFV
Assay: cell-based or functional assay

Compared with B1, B2 is lower in “HR when expressed with MP Rugose” value: 4 HR scale 0-4 for the first, less than 1 HR scale 0-4 for the second.

First: B3
Second: B4
The “HR when expressed with MP Rugose” value of the first is lower: less than 1 HR scale 0-4 for the first, 4 HR scale 0-4 for the second.

Target: T1, Movement Protein of ToBRFV
Assay: cell-based or functional assay
Remark: another data set of the same source

B3 was tested, and the “HR when expressed with MP Rugose” value was less than 1 HR scale 0-4.

Target: T1, Movement Protein of ToBRFV
Assay: cell-based or functional assay
Remark: another data set of the same source

Going from B1 to B5, the “HR to MP Rugose” value falls from 3 HR scale 0-4 to less than 1 HR scale 0-4.

B6 and B3 cannot be ordered by “HR to MP Rugose” value: less than 1 HR scale 0-4 for the first, less than 1 HR scale 0-4 for the second.

Going from B7 to B8, the “HR to MP Rugose” value falls from 3 HR scale 0-4 to less than 1 HR scale 0-4.

B9 was tested, and the “HR to MP Rugose” value was less than 1 HR scale 0-4.

Target: T1, Movement Protein of ToBRFV
Assay: cell-based or functional assay
Remark: another data set of the same source

B3 and B10 cannot be ordered by “HR to MP Rugose” value: less than 1 HR scale 0-4 for the first, less than 1 HR scale 0-4 for the second.

With B11 the “HR to MP Rugose” value was 0 HR scale 0-4.

Target: T1, Movement Protein of ToBRFV
Assay: cell-based or functional assay
Remark: another data set of the same source

B12 and B13 cannot be ordered by “HR to MP Rugose” value: less than 1 HR scale 0-4 for the first, less than 1 HR scale 0-4 for the second.

B14 and B3 cannot be ordered by “HR to MP Rugose” value: less than 1 HR scale 0-4 for the first, less than 1 HR scale 0-4 for the second.

B15 and B16 cannot be ordered by “HR to MP Rugose” value: less than 1 HR scale 0-4 for the first, less than 1 HR scale 0-4 for the second.

With B17 the “HR to MP Rugose” value was 0 HR scale 0-4.

Target: T1, Movement Protein of ToBRFV
Assay: cell-based or functional assay
Remark: another data set of the same source

B18 and B19 are the same in “HR to MP Rugose” value: 0 HR scale 0-4 for the first, 0 HR scale 0-4 for the second.

First: B20
Second: B21
The “HR to MP Rugose” value of the first is lower: 0 HR scale 0-4 for the first, 4 HR scale 0-4 for the second.

First: B22
Second: B23
The “HR to MP Rugose” value of the first is higher: 4 HR scale 0-4 for the first, 0 HR scale 0-4 for the second.

Target: T1, Movement Protein of ToBRFV
Assay: cell-based or functional assay
Remark: another data set of the same source

First: B1
Second: B3
The “HR to MP Rugose” value of the first is higher: 4 HR scale 0-4 for the first, less than 1 HR scale 0-4 for the second.
